How the values were obtained:
[1] = target: HpBARI expressed with C-terminal tags (Heligmosomoides polygyrus); assay: SPR
[2] = target: H. polygyrus Binds Alarmin Receptor and Inhibits (HpBARI), N-terminal tagged (Heligmosomoides polygyrus); assay: SPR

B1: Mouse IL-33-TRAP-Fc (a fusion protein of ST2 and IL-1RAcP with an Fc tag) (Fc fusion)
chain: SKSSWGLENEALIVRCPQRGRSTYPVEWYYSDTNESIPTQKRNRIFVSRDRLKFLPARVEDSGIYACVIRSPNLNKTGYLNVTIHKKPPSCNIPDYLMYSTVRGSDKNFKITCPTIDLYNWTAPVQWFKNCKALQEPRFRAHRSYLFIDNVTHDDEGDYTCQFTHAENGTNYIVTATRSFTVEEKGFSMFPVITNPPYNHTMEVEIGKPASIACSACFGKGSHFLADVLWQINKTVVGNFGEARIQEEEGRNESSSNDMDCLTSVLRITGVTEKDLSLEYDCLALNLHGMIRHTIRLRRKQPIDHRSERCDDWGLDTMRQIQVFEDEPARIKCPLFEHFLKYNYSTAHSSGLTLIWYWTRQDRDLEEPINFRLPENRISKEKDVLWFRPTLLNDTGNYTCMLRNTTYCSKVAFPLEVVQKDSCFNSAMRFPVHKMYIEHGIHKITCPNVDGYFPSSVKPSVTWYKGCTEIVDFHNVLPEGMNLSFFIPLVSNNGNYTCVVTYPENGRLFHLTRTVTVKVVGSPKDALPPQIYSPNDRVVYEKEPGEELVIPCKVYFSFIMDSHNEVWWTIDGKKPDDVTVDITINESVSYSSTEDETRTQILSIKKVTPEDLRRNYVCHARNTKGEAEQAAKVKQKVIPPRYTVELACGFGAT
B1 gave a koff [1] of ~0.13 s⁻¹ and a koff [2] of ~0.04 s⁻¹.
